Results: the nanobody polyreactivity screen of Harvey et al. (2022)

Assay: yeast display, Sf9 membrane polyspecificity reagent, FACS + sequencing; frameworks hold sequencing errors
Summary of the method: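 A synthetic nanobody library was expressed on Saccharomyces cerevisiae BJ5465 by galactose induction for 36–48 hours. The library was stained for 1 hour at 4 °C with 10% biotinylated, detergent-solubilized Sf9 membrane reagent and enriched with streptavidin microbeads before FACS. Low and high (top ~1%) gates were set on anti-HA fluorescence for expression and streptavidin fluorescence for reagent binding, and each polyreactivity label reflects the gate of origin.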

Row | Sequence | polyreactivity (PSR sort gate)
1 | QVQLVESGGGLVQAGGSLRLSCAASGRIFWYYAMGWYRQAPGKERELVAAISRSGGSTYYADSVKGRFTISRDNAKNTVYLQMNSLKPEDTAVYYCAAGARAFDDDSWGQGTQVTVSS | low polyreactivity
2 | QVQLVESGGGLVQAGGSLRLSCAASGRTFRRNAMGWYRQAPGKERELVASINRGGGTNYADSVKGRFTISRDNAKHTVYLQMNSLKPEDTAVYYCAAGPGTYWGYDYWGQGTQVTVSS | low polyreactivity
3 | QVQLVESGGGLVQAGGSLRLSCAASGFIFAANAMGWYRQAPGKEMELVARIRSTGRTSYADSVKGRFTISRDNAKNTVYLQMNSLKPEDTAVYYCATDYYRYRDYAYYWLDYNYWGQGTQVTVSS | high polyreactivity
4 | QVQLVESGGGLVQAGGSLSLSCAASGSIFDYNAMGWYRQAPGKEREVVAAIDGGSTYYADSVKGRFTISRDNAKNNVYLQMNSLKPEDTAVDYCAAEGFQADTYYWPMESWGQGTQVTVSS | low polyreactivity
5 | QVQLVESGGGLVQAGGSLRLSCAASGIIFAYYAMGWYRQAPGKETELVAAINRSGGTTYYADSVKGRFTISRDNAKNTVYLQMNSLKPEDTAVYYCNALTTWRYRYDYWGQGTQVTVSS | high polyreactivity
6 | HVQLVESGGGLVQAGGSLRLSCAASGFTFRRNAMGWYRQSPGKERELVASITQRGGSTYYADSVKGRFTISRDNAKNTVYLQMNSLKPADTAVYDCNARSWDSFHPHDYWGQGTLVTVSS | high polyreactivity
7 | QVQLVESGGGLVQAGGSLRLSCAASGRIVNRYAMGWDRQAPVKERELVAAITYNGGSTYYADSVKGRFTISRDNAKNTVYLQMNSLKPVDTAVYYCNAVEVLDEGWGFWYYYWGQGTQVTVSS | high polyreactivity
8 | QVQLVESGGGLVQAGGSLRLSCAASGSIFGLYAMGWYRQAPGKERELVAAINWNGGDTYYADSVKGRFTISRDYAKNTVYLQMNSLIAVDNAVYYCAAYPRDPYKEYDYLGQGTQVTVSS | low polyreactivity
9 | QVQLVESGGGLVQAGGSLRLSCAASGRTFYRYAMGWYRQAPGKERELVASITRRGGNTYYADSVKGLFTISRDNAKNTVYLQMNSLKPEDTAVYYCAAQSLHPGNWGQGTQVTVSS | high polyreactivity
10 | QVQHVESGGGLVQAGGSLRLSCAASGSIFSHYAMGWYRQEPGKERELVATITWRGGSNTNYADSVKGRFTISRDNAKNTVYLQMNSLKPEDTAVYYCNAAFPYHYRFDYWGQGTQVTVSS | low polyreactivity
11 | QVQLVESGGGLVQAGGSLRLSCAASGYIFLRNAMGWSRQAPGKERELVASISSDDTSTHYADSVKGRFTISRDNAKNTVYLQMNSLKPEDTAVYYCAARNTPAYIDYNYWGQGTQVTVSS | low polyreactivity
12 | QVQLVESGGGLVQAGGRLRLSCAASGRTFTVYAMGWYRQAPGKEREFVAAITERGGSTYYADSVKGRFTISRDNAKNTVYLKMNSLKPEDTSVYYFAAVFYWRPGWYVRFDYWGQGTQVTVSS | low polyreactivity
13 | QVQLVESGGGLVQAGGSLRLSCAASGSTFKRNAMGWYRQAPGKERELVAAISSSGGRTYYADSVKGRFTISRDNAKNTVYLQMNSLKPEDTAVYYCAAGIRTSAGYDYWGQGTQVTVSS | high polyreactivity
14 | QVQLVESGGGLVQAGGSLRLSCAASGRIVLGYAMGWYRQQPGKEMELVAAISRSGGGTFYADSVKGRFTISRDNAKNTVYLQMNSLKPEDTAVYYCNARRGRASGMDYWGQGTQVTVSS | high polyreactivity
15 | QVQLVESGGGLVQAGGSLRLSCAASGFIFPRYAMGWYRQAPGTERELVAAISRGGRTNYADSVKGRFTISRDNAKNTVYFQMNSLKPEDTAVYYCAKKYYLSGSRADDSWGQGTQVTVSS | high polyreactivity
16 | QVQLVESGGGLVQAGGSLRLSCAASGIIIRGYAMGLYRQAPGKERELVAGITSGGRTYYADSVKGRFTISRDNAKNTVYLQMNSLKPEDTAVYYCNADAYGDDWKIYDYWGQVTQVTVSS | low polyreactivity

Row | Sequence | polyreactivity (PSR sort gate)
17 | QVQLVESGGGLVQAGGSLRLSSAASGRIFRFYAMGWYRQAPGKERELVAAITSGGSTYYADSVKGRFTISRDNAKNTVYLQMNRLKPEDTAVYYCANYYWGQGTQVTVSS | low polyreactivity
18 | QVQLVESGGGLVQAGGSLRLSCAASGFILYGNARGWYRQAPGKERELVAAISSSGRTNYADYVKGRFTISRDNAKNTVYLQMNRLKPEDTAVYYCADYVRAGYGMGYWGQGTQVTVSS | low polyreactivity
19 | QFQLVESGGGLVQAGGSLRLSCAASGSTFGVNAMGWYRQAPGKERELVAAISSSGSSTYADSVKGRFTISRDNAKNTVYLQMNSLKPEDTAVYYCNKTTLLTVEYDYWGQGTQVTVSS | low polyreactivity
20 | QVQLVESGGGLVQAGGTLRLSCDPSGRTFYYYAMGWYRQAPGKERELVATIRSTGSTNYADSVKGRFTISRDNAKNTVYLKMNSLKPEDTAVYYCAAKPLQGVRRVEYWGQGTQVTVSS | high polyreactivity
21 | QVQLVESGGGLVQAVGSHRLICAASGSIFPYYAMGWYRQAPGKERELVATITYRGGSTNYADSVKGRFTISRDNAKNTVYLQMNSLKPEDTAVYYCAAEYYSIRYGPHSIEVYGMDYWGQGTHVTVSS | low polyreactivity
22 | QVQLVETGGGLVQAGGSLRLSCAASGFIFYDYAMGWYRQSPGKERELVASISWSSGSTYYADSVKGRFTISRDNAKNTVYLQMNSLKPEDTAVYYCAADGYPLQLYNYWGQGTQVSVSS | low polyreactivity
23 | QVQLVESGGGLVQAGGSLRLSCAASGRIFSFNGMGWYRQAPGKERELVAAITTSGGRTYYADSVKGRFTISRDNAKNTVYLQINSLKPEDTAVYYCAAELAWEYYWGQGTQVTVSS | low polyreactivity
24 | QVQLEESGGGLVQAGGSLRLSCAASGSTFSSNVMGWYRQAPGKERELVAAITGSGSRTYYADSVKGRFTISRDNAKNTVYLQMNSLKPEDTAVYYCNTKGRSRETYGYDYWGQGTQVTVSS | high polyreactivity
25 | QVQLVESGVGLVQAGGSLRLSCAASGRTFSYYAMGWSRQAPGKERELVAAITSSGGSTYYADSVKGRFTISRDNAKNTVYLQMNSLKPEDTAVYYCAAEIWYYLWTTFERKYDYWGQGTQVTVSS | low polyreactivity
26 | QVQLVESGGGLVQAGGSLRLSCAASGSIFSDYAMGWYRQAPGKEREFVAAIDSSGSTYYADSVKGRFTISRDNAKNTVYLQMNSLKPEDTAVYYCAADHLLYSVYIYYYWGQGTQVTVSS | low polyreactivity
27 | QVQLVESGGGLVQAGGSLRLSCAASGSTFSHNAMGWYRQAPGKERELVAAISWSGVGTYADSVKGRFTISRDNAKNTVYLQMNSLKPEDTAVYYCNKVSYPSTSSSWFDYWGQGTQVTVSS | low polyreactivity
28 | QVQLVESGGGLVQAGGSLRLSCAASGSTFWVNAMGWYRQAPGKERELVAAISERGGRTYYADSVKGRFTISRDNAKNTVYLQMNSLKPEDTAVYYCNRVTRSNVDYWGQGTQVTVSS | high polyreactivity
29 | QVQLVESGGGLVQAGGSLRLSCAASGSIFHNYDMGCYRQAPGKERELVADISRGGDTNYADSVKGRFTISRDNAKNTVYLQMNSLKPEDTAVYYCSADSADPTEYDYWGQGTQVTVSS | low polyreactivity
30 | QVQLVETGGGLVQAGGSLRLSCAASGIFTYTMGWYRQAPRKERELVAAITNGSTYDADSVKGRFTISRDNAKNTVYLQMNSLKPEDTEVYYCAADRSSAYRWRSAGYYKYDYWGQGTHVTVSS | low polyreactivity
31 | QVQLVESGGGLVQAGGSLRLSCAASGRTFKYYAMGWYRQAPGKERELVAAISRGGSTNYADSVKGRFTISRDNAKNTVYLQVNSLKPEDTAVYYCARRYIVQSGDDYWGQGTQVTVSS | low polyreactivity
32 | QVQLVESGGGLVQAGGSLRLSCAASGYIFGVYAMGWYRQAPGKERELVAVISSGDRTNYADSVKGRFTISRDNAKNTVYLQMNSLKPEDTAVYYCAADGRSPSYYGYDHWGQGTQVTVSS | low polyreactivity
